Laboratory results from patent US20240383985A1 (published 2024).

What follows are binders tested against CD33 naturally expressed on HL60 cells (human, UniProt P20138 18-364) (assay: FACS).
Sequence of CD33 naturally expressed on HL60 cells (P20138 18-364): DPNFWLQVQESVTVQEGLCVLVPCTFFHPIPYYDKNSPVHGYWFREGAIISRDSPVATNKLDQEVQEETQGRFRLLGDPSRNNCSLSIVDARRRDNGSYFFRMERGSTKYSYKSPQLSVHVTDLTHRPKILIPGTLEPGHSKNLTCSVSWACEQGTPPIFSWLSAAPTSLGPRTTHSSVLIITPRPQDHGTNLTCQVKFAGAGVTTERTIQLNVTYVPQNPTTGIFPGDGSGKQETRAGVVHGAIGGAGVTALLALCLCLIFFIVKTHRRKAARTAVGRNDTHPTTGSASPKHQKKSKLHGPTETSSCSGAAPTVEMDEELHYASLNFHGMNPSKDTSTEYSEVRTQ

| Binder | EC50 |
| --- | --- |
| QP42664412 (antibody) chain 1: DIVMTQSPDSLTVSLGERTTINCKSSQSVLDSSTNKNSLAWYQQKPGQPPKLLLSWASTRESGIPDRFSGSGSGTDFTLTIDSPQPEDSATYYCQQSAHFPITFGQGTRLEIKRTVAAPSVFIFPPSDEQLKSGTASVVCLLNNFYPREAKVQWKVDNALQSGNSQESVTEQDSKDSTYSLSSTLTLSKADYEKHKVYACEVTHQGLSSPVTKSFNRGEC chain 2: QVQLVQSGAEVKKPGESVKVSCKASGYTFTNYGMNWVKQAPGQGLEWMGWINTYTGEPTYADKFQGRVTMTTDTSTSTAYMEIRNLGGDDTAVYYCARWSWSDGYYVYFDYWGQGTSVTVSSASTKGPSVFPLAPSSKSTSGGTAALGCLVKDYFPEPVTVSWNSGALTSGVHTFPAVLQSSGLYSLSSVVTVPSSSLGTQTYICNVNHKPSNTKVDKKVEPKSCDKTHTCPPCPAPEAAGGPSVFLFPPKPKDTLMISRTPEVTCVVVDVSHEDPEVKFNWYVDGVEVHNAKTKPREEQYNSTYRVVSVLTVLHQDWLNGKEYKCKVSNKALPAPIEKTISKAKGQPREPQVYTLPPSREEMTKNQVSLSCAVKGFYPSDIAVEWESNGQPENNYKTTPPVLDSDGSFFLVSKLTVDKSRWQQGNVFSCSVMHEALHNRYTQKSLSLSPGKGGSHHHHHH chain 3: MEFGLSWLFLVAILKGVQCSYVLTQPSSVSVAPGQTATISCGGHNIGSKNVHWYQQRPGQSPVLVIYQDNKRPSGIPERFSGSNSGNTATLTISGTQAMDEADYYCQVWDNYSVLFGGGTKLTVLGGGGSGGGGSGGGGSITCPPPMSVEHADIWVKSYSLYSRERYICNSGFKRKAGTCSLTECVLNKATNVAHWTTPSLKCIR chain 4: not shown | 12 nM |
| QP42664415 (antibody) chain 1: DIVMTQSPDSLTVSLGERTTINCKSSQSVLDSSTNKNSLAWYQQKPGQPPKLLLSWASTRESGIPDRFSGSGSGTDFTLTIDSPQPEDSATYYCQQSAHFPITFGQGTRLEIKRTVAAPSVFIFPPSDEQLKSGTASVVCLLNNFYPREAKVQWKVDNALQSGNSQESVTEQDSKDSTYSLSSTLTLSKADYEKHKVYACEVTHQGLSSPVTKSFNRGEC chain 2: QVQLVQSGAEVKKPGESVKVSCKASGYTFTNYGMNWVKQAPGQGLEWMGWINTYTGEPTYADKFQGRVTMTTDTSTSTAYMEIRNLGGDDTAVYYCARWSWSDGYYVYFDYWGQGTSVTVSSASTKGPSVFPLAPSSKSTSGGTAALGCLVKDYFPEPVTVSWNSGALTSGVHTFPAVLQSSGLYSLSSVVTVPSSSLGTQTYICNVNHKPSNTKVDKKVEPKSCDKTHTCPPCPAPEAAGGPSVFLFPPKPKDTLMISRTPEVTCVVVDVSHEDPEVKFNWYVDGVEVHNAKTKPREEQYNSTYRVVSVLTVLHQDWLNGKEYKCKVSNKALPAPIEKTISKAKGQPREPQVYTLPPSREEMTKNQVSLSCAVKGFYPSDIAVEWESNGQPENNYKTTPPVLDSDGSFFLVSKLTVDKSRWQQGNVFSCSVMHEALHNRYTQKSLSLSPGKGGSHHHHHH chain 3: MEFGLSWLFLVAILKGVQCQVQLVQSGAEVKKPGESLKVSCKASGYTFTSYYMHWVRQAPGQGLEWMGIINPSGGSTSYAQKFQGRVTMTRDTSTSTVYMELSSLRSEDTAVYYCARGSAYYYDFADYWGQGTLVTVSSGGGGSGGGGSGGGGSITCPPPMSVEHADIWVKSYSLYSRERYICNSGFKRKAGTCSLTECVLNKATNVAHWTTPSLKCIR chain 4: not shown | 14.2 nM |
| QP42664400 (antibody) chain 1: DIVMTQSPDSLTVSLGERTTINCKSSQSVLDSSTNKNSLAWYQQKPGQPPKLLLSWASTRESGIPDRFSGSGSGTDFTLTIDSPQPEDSATYYCQQSAHFPITFGQGTRLEIKRTVAAPSVFIFPPSDEQLKSGTASVVCLLNNFYPREAKVQWKVDNALQSGNSQESVTEQDSKDSTYSLSSTLTLSKADYEKHKVYACEVTHQGLSSPVTKSFNRGEC chain 2: QVQLVQSGAEVKKPGESVKVSCKASGYTFTNYGMNWVKQAPGQGLEWMGWINTYTGEPTYADKFQGRVTMTTDTSTSTAYMEIRNLGGDDTAVYYCARWSWSDGYYVYFDYWGQGTSVTVSSASTKGPSVFPLAPSSKSTSGGTAALGCLVKDYFPEPVTVSWNSGALTSGVHTFPAVLQSSGLYSLSSVVTVPSSSLGTQTYICNVNHKPSNTKVDKKVEPKSCDKTHTCPPCPAPEAAGGPSVFLFPPKPKDTLMISRTPEVTCVVVDVSHEDPEVKFNWYVDGVEVHNAKTKPREEQYNSTYRVVSVLTVLHQDWLNGKEYKCKVSNKALPAPIEKTISKAKGQPREPQVYTLPPSREEMTKNQVSLSCAVKGFYPSDIAVEWESNGQPENNYKTTPPVLDSDGSFFLVSKLTVDKSRWQQGNVFSCSVMHEALHNRYTQKSLSLSPGKGGSHHHHHH chain 3: not shown chain 4: not shown | 8.39 nM |
